Experimental findings from article PMC10042849 are described below.

pKd: −log10 of the molar value.

The assay concerns the target EndoS2_(E186L), catalytically inactive EndoS2 (Streptococcus pyogenes (serotype M49)) (UniProt T1WGN1). Nature of the assay: NMR titration; methyl-TROSY (1H,13C HMQC) spectra of MILV methyl-labelled enzyme (45-128 µM) titrated with ligand; 2D lineshape fitting with TITAN, two-state binding model; 20 mM Tris-d11 pH* 7.50, 50 mM NaCl in D2O; 600 MHz, 298 K.

With “Fc region of the IgG1 monoclonal antibody Rituximab (Fc-Rituximab) (from UniProt P01857 1-328) (domain or fragment)”, the pKd is 5.51, the dissociation rate constant (koff) stood at 4 s⁻¹ and the on-rate (kon) is 1.3e+06 M⁻¹ s⁻¹.

The pKd is the Kd on a negative log10 scale, so that one unit is a factor of ten. A high value points to a low Kd. Broadly, the koff is the rate constant with which the complex falls apart. Low readings indicate a long-lived complex, high ones a short-lived complex. What is called kon is the second-order rate constant of association. The low end stands for slow association, the high end for fast association.
